The numbers were not newly measured in article PMC8268101, which cites them from elsewhere.

The target in this series is C1q (Homo sapiens) (UniProt P02745). Put plainly: SPR.
UniProt P02745, sequence (P02745 23-245, chain 1 of 3): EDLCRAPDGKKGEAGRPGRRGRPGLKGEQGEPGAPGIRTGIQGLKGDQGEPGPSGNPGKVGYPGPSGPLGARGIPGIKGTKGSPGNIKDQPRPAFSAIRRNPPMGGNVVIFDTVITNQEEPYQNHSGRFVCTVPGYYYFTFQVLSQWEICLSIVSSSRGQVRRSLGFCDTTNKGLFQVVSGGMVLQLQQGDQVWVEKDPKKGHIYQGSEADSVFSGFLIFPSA
UniProt P02745, sequence (P02746 28-253, chain 2 of 3, further chain): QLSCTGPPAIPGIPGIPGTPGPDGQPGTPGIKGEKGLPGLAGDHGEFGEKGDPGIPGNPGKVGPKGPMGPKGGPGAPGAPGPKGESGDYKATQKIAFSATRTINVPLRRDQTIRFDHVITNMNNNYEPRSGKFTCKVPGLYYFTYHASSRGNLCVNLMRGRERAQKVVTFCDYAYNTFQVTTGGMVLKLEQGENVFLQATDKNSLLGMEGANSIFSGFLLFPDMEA
UniProt P02745, sequence (P02747 29-245, chain 3 of 3, further chain): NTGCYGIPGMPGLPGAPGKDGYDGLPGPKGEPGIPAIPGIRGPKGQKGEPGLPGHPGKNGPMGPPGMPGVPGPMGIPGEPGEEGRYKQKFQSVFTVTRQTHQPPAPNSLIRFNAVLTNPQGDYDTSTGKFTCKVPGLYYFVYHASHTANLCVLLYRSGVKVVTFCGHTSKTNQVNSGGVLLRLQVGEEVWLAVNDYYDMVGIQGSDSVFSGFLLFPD

As to RAGE (from UniProt Q15109), the Kd is 5.6 µM.
